Measured values published in patent US20050079218A1, “Matrices for the stabilizing and controlled release of problematic substances” (priority 2001, published 2005).

How the values were obtained:
U78 MG tumour = experiment: efficacy of BCNU matrices in tumour-bearing nude mice (FIG. 2); type: in vivo; conditions: U78 MG tumour subcutaneously inoculated
Protocol: Thus the effectiveness of BCNU in tumour-bearing nude mice (U78 MG tumour subcutaneously inoculated) is the same for a lipid matrix according to the invention and for a conventional polyanhydride matrix, as shown in FIG. 2.
In FIG. 2, the area of the tumour is plotted in […] on the ordinate, and the time in days on the abscissa.

[1] = cited from earlier work
[2] = release of model substances from cylindrical lipid carrier systems with differing gelatin content (FIGS. 3 and 4); type: physicochemical; conditions: phosphate buffer pH 7.4, 37° C.; for period of controlled release: lipid matrix with 0, 1, 5, 10 and 20% gelatin, cylindrical; for control of release via gelatin content: fluorescence intensity
Description: FIGS. 3 and 4 show diagrams illustrating the dependence of the rate of release on the proportion of release-controlling substance in the carrier system according to the invention. In the embodiment shown in FIGS. 3 and 4, a lipid matrix composed of glycerol tripalmitate with differing gelatin contents […]. The carrier system used is cylindrical in shape.
The proportion of gelatin within the carrier system is 0, 1, 5, 10 and 20%.
The quantity released in percent is shown on the ordinate, and the time in days on the abscissa.
Substances used for the release from the carrier system (for example pyranine or tetramethylrhodamine-labelled bovine serum albumin (TAMRA-BSA) were dispersed in the desired quantity in an aqueous 15% (m/m) gelatin solution. 100-μl portions of this dispersion were pipetted into each opening in a 96-hole plate, and freeze-dried. The lyophilisate was comminuted in a mortar, and mixed with glyceryl trimyristate in a desired percentage. Powder mixtures with a content of up to 30% (m/m) of gelatin resulted. Cylindrical carrier systems were produced by compressing the corresponding proportions by weight of gelatin with lipid granulate. To this end, 7 mg of substance was produced in a 2-mm pressing tool using a compressive force of 250 N over 10 sec. In this way, carrier system charged with pyranine or fluorescence-labelled bovine serum albumin (TAMRA-BSA) were produced in the composition, as shown in Table 1.
(§1) To test the release of model substances from carrier systems depending on the content of release-controlling substance, the cylinders obtained in Example 1 were incubated at 37° C. in 40 ml of phosphate buffer at pH 7.4. The release of the substances was monitored by measuring the fluorescence intensity. To this end, pyranine was excited at 407 nm and the emission measured over 436 nm. The TAMRA-BSA content was determined at a wavelength of 572 nm with excitation at 541 nm.

[3] = release of active hyaluronidase from carrier matrices in phosphate buffer, activity via Morgan-Elson reaction (FIG. 1); type: physicochemical
Protocol: The ordinate gives the release quantity of hyaluronidase in percent, and the abscissa the time in hours.
as §1
To test the stabilising properties of the carrier systems, glyceryl trimyristate was worked up with hyaluronidase. To this end, 25 mg neopermease, a mixture of 200,000 IU hyaluronidase and gelatin, was mixed with 325 mg of lipid and compressed as described in Example 1 to form cylindrical carrier systems weighing 7 mg. The gelatin content of this mixture was approximately 7.1%. To determine the release of the enzyme, 5 matrices were incubated with phosphate buffer as described in Example 2, and the release determined by measuring the activity via the Morgan-Elson reaction (Muckenschnabel I., Cancer Lett. 131(1) (1998) 13 to 20).

For O=NN(CCCl)C(=O)NCCCl [BCNU, carmustine], which “effectiveness (tumour area over time), lipid matrix versus conventional polyanhydride matrix” value (U78 MG tumour) is on record?
The value was “the same”.

What about the half-life in plasma [1] of the same compound?
Its half-life in plasma is “approximately 20 minutes”.

Which “period of controlled release” value [2] does the source give for O=S(=O)([O-])c1cc(O)c2ccc3c(S(=O)(=O)[O-])cc(S(=O)(=O)[O-])c4ccc1c2c34.[Na+].[Na+].[Na+] [pyranine] here?
Its value is “over a period of several weeks”.

What about the “control of release via gelatin content” value [2] of the same compound?
Its value is “optimally controlled via the gelatin content”.

Which results are given for “TAMRA-BSA: bovine serum albumin fluorescence-labelled with tetramethylrhodamine”?
period of controlled release [2]: over a number of weeks or months; control of release via gelatin content [2]: optimally controlled via the gelatin content

For hyaluronidase, which “activity liberated from carrier system” value ([3]; glyceryl trimyristate cylinders, gelatin approximately 7.1%, phosphate buffer pH 7.4, 37° C.) is on record?
The value was “all the activity is liberated”.

And the “effect of release on the enzyme” value ([3]; release from conventional system poly(1,3-bis[carboxyphenoxypropane]-sebacic acid) 20:80)?
Its value is “inactivation”.

What about the “activity of the enzyme achieved on release” value ([3]; release from glyceryl tripalmitate matrix) of the same compound?
Its value is 100%.
